Reference: patent US20250332275A1, “Branched Polypeptide Carrier for Efficient Nucleic Acid Delivery and Its Variants” (SUZHOU HEALIRNA BIOTECHNOLOGY CO., LTD., priority 2022, published 2025)
Ends that are not written are not given here.

Tested on: mRNA
Test: Agarose gel electrophoresis of branched polypeptide mixed with mRNA
Format: physicochemical
Conditions: 1.5% agarose, 190 V, 20 minutes
Experimental: A 1.5% agarose gel was prepared by dissolving agarose in a TBE buffer using a microwave. After adding the sub-green dye, the solution was poured into the gel plate, and a comb was inserted. Polypeptide Sequences 9-12 samples were each mixed with mRNA and then mixed with the sample loading buffer in a 1:1 ratio and set aside after thorough mixing. The gel was loaded with Marker and the samples, then subjected to electrophoresis at 190 V for 20 minutes, and images were captured using a gel imaging system.

[1] = polypeptide with mRNA at a 1:1 mass ratio
[2] = polypeptide with mRNA at a 1:2 mass ratio

Substance	retention of complex in sample well (mRNA encapsulation, FIG. 7) [1]	retention of complex in sample well (mRNA encapsulation, FIG. 7) [2]
K(LAALAALAALAALAAC)KK(KDKDKDKDKDKD)KK(KDKDKDKDKDKD)KK(LAALAALAALAALAAC) (chain 1 KKKKKKK; chain 2 CAALAALAALAALAAL; chain 3 DKDKDKDKDKDK; also: branched: C-termini of two chain 2 copies amide-linked to side chains of Lys1, Lys7 of chain 1, C-termini of two chain 3 copies amide-linked to side chains of Lys3, Lys5 of chain 1) [Polypeptide Sequence 11]	remained within the sample wells	remained within the sample wells
K(LAALAALAALAALAALAALAAC)KK(KSKKSKKSKKSKKSK)KK(LAALAALAALAALAALAALAAC) (chain 1 KKKKK; chain 2 CAALAALAALAALAALAALAAL; also: branched: C-termini of two chain 2 copies amide-linked to side chains of Lys1, Lys5 of chain 1, C-terminus of chain 3 amide-linked to side chain of Lys3 of chain 1) [Polypeptide Sequence 10]	remained within the sample wells	remained within the sample wells
K(LAALAALAALAALAALAALAAC)KKKK(LAALAALAALAALAALAALAAC) (chain 1 KKKKK; chain 2 CAALAALAALAALAALAALAAL; also: branched: C-termini of two chain 2 copies amide-linked to side chains of Lys1, Lys5 of chain 1) [Polypeptide Sequence 9]	remained within the sample wells	remained within the sample wells
K(LAALAALAALAALAA)KK(KSKKSKKSKC)KK(LAALAALAALAALAA)KK(KSKKSKKSKC)KK(LAALAALAALAALAA) (chain 1 KKKKKKKKK; chain 2 AALAALAALAALAAL; chain 3 CKSKKSKKSK; also: branched: C-termini of three chain 2 copies amide-linked to side chains of Lys1, Lys5, Lys9 of chain 1, C-termini of two chain 3 copies amide-linked to side chains of Lys3, Lys7 of chain 1) [Polypeptide Sequence 12]	remained within the sample wells	remained within the sample wells
